From patent US20060160076A1

Biological target: CX3CR1 (endogenous, on 3T3-L1 adipocytes) (mouse) (UniProt Q9Z0D9)
Assay: cell-based or functional assay

UniProt Q9Z0D9, sequence (Q9Z0D9 whole entry): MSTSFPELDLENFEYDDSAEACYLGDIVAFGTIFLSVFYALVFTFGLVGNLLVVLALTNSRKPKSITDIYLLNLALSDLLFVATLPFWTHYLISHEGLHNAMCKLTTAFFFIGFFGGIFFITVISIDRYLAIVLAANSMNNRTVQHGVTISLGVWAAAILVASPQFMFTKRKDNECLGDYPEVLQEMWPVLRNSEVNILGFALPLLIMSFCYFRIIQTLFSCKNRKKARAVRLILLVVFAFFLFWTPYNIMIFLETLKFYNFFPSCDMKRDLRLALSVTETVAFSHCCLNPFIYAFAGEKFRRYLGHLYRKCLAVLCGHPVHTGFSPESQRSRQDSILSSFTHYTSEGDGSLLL

fold change in glucose uptake over vehicle pretreatment alone; +1 nM FRA, +0.1 nM INS: 1.6 fold | fold change in glucose uptake over vehicle pretreatment alone; +1 nM FRA, +1 nM INS: 1.6 fold | fold change in glucose uptake over vehicle pretreatment alone; +1 nM FRA, +10 nM INS: 0.9 fold | fold change in glucose uptake over vehicle pretreatment alone; +1 nM FRA, basal: 1.4 fold | fold change in glucose uptake over vehicle pretreatment alone; +10 nM FRA, +0.1 nM INS: 1.9 fold | fold change in glucose uptake over vehicle pretreatment alone; +10 nM FRA, +1 nM INS: 1.8 fold | fold change in glucose uptake over vehicle pretreatment alone; +10 nM FRA, +10 nM INS: 0.9 fold | fold change in glucose uptake over vehicle pretreatment alone; +10 nM FRA, basal: 1.3 fold | fold change in glucose uptake over vehicle pretreatment alone; +100 nM FRA, +0.1 nM INS: 2 fold | fold change in glucose uptake over vehicle pretreatment alone; +100 nM FRA, +1 nM INS: 1.3 fold | fold change in glucose uptake over vehicle pretreatment alone; +100 nM FRA, +10 nM INS: 1.1 fold | fold change in glucose uptake over vehicle pretreatment alone; +100 nM FRA, basal: 1.3 fold | mean 2-DOG uptake value; 1 nM FRA+0.1 nM INS: 1090 | mean 2-DOG uptake value; 1 nM FRA+10 nM INS: 3660 | mean 2-DOG uptake value; 1 nM FRA+Basal: 544 | mean 2-DOG uptake value; 1 nM FRA+nM INS (so in the source): 3160 | mean 2-DOG uptake value; 10 nM FRA+0.1 nM INS: 1280 | mean 2-DOG uptake value; 10 nM FRA+1 nM INS: 3540 | mean 2-DOG uptake value; 10 nM FRA+10 nM INS: 3750 | mean 2-DOG uptake value; 10 nM FRA+Basal: 521 | mean 2-DOG uptake value; 100 nM FRA+0.1 nM INS: 1350 | mean 2-DOG uptake value; 100 nM FRA+1 nM INS: 2730 | mean 2-DOG uptake value; 100 nM FRA+10 nM INS: 4350 | mean 2-DOG uptake value; 100 nM FRA+Basal: 515
Substance: recombinant soluble fractalkine (ligand)
